# Source: the DeepSol protein solubility set
# Test: soluble on expression in E. coli; label from the status in PepcDB or PDB records
row,Sequence,soluble on expression in E. coli
1,MGSDKIHHHHHHMAKTPANKNDQTKDGRFEEALWDAANKLRGSVESSEYKHIVLSLIFLKFISDTFEQQRQKLIDTGYEKHIDMVQAYTKDNVFYLPAESRWSFIQQNAKQEDIALKIDTALSTIEKTNQSLKGALPDNYFSRLGLTASKLAALIDVVNNIDTIGNPEEDTVGRVYEYFLGKFAATEGKGGGEFYTPKSVVNLIAEMVEPYQGKIYDPCCGSGGMFVQSIKFIESHHGNTKDVSIYGQEYTSTTYKLAKMNLAIRGISSNLGDVAADTFFKDQHEDLKADFIMANPPFNQKDWRASDELVDDPRWAGYPTPPTGNANYAWILHMISKLSEHGTAGFVLANGSMSTTTSGEGEIRQQIIENDLVDCMIALPGQLFYTTQIPVCLWFINKDKQAKSADSKARGLRNRSGETLFIDARAIGSMISRTNKELTKDDIEAIAKTYHAWRGEKEAGGYEAYTDEAGYCKSATLDDMKANDYVLTPGRYVGAAAIEDDGISFETKMLELSQTLYAQMQASEKLDATIRQNLEVLGYGE,not soluble
2,TDNFSWSTNLNFSYNDNKIKELVDDLPNGLTLTDFGGAKVILKEGGHYGDLYVRHLMRDENGKPLQNEKGEPIVSGDSMDELEYAGNMNAKVNMGWTNTFRYKDFSLSFLIDAKFGGKVISMTEAALDGWGVSKRSGEARDAGGITVDGVKFDADKYYRTTGNNNFNSPYAVENYVYDATNIRLREVTFGYTFRNLLGAGKNLTAAIIGRNLFFFHKDAPMDPDVSAGTGNGIQGVDMFALPTSRSFGLNLKLNF,not soluble
3,MRTPLSSVSPQLVQRFHELGFTPSSIRNFLGRPGFAAISRGEPASVLYAMRENEDSDFYPLIATFILHRPVAAEALHRVLGGSLTDQLTETGVLEIVDASKAYLTAKIDIRWLELEDDLFWVFSDTDASMIADHVPGKDHVLGVGAASLSL,not soluble
4,MTDSTIRIAIVGAGGRMGRQLIQAVTQMEGVVLGAAIERKGSTLVGSDAGELAGVGLLNVIVGDDLSQLTDNFDVLIDFTRPEGTLEHLAICRQHRKAMVIGTTGFDEAGKAAISEAAADIGIVFAANFSVGVNVVLKLLEKAAKVMGDYTDIEIIEAHHRHKVDAPSGTALAMGEAIADAMGRSLKDCAVYSREGYTGERKPGTIGFATVRAGDIVGEHTAMFADIGERVEITHKATSRMTFAHGAVKSAIWLGKHDNGLFDMRDVLNLNEL,soluble
5,MASMTGGQQMGRGSEEPNPNDGYDYMQHGFDWPGLQEGGTTKYPACSGSNQSPIDINTNQLMEPSSRSGTSAVSLNGLNVDGAQADGITLTNAKVDLEQGMKVTFDQPAANLPTIEIGGTTKSFVPIQFHFHHFLSEHTINGIHYPLELHIVMQEQDPADVATAQLAVIGIMYKYSENGDAFLNSLQTQIEGKIGDGTASYGDTGVSIDNINVKTQLLPSSLKYAGYDGSLTTPGCDERVKWHVFTTPREVTREQMKLFVDVTMGAHAGADVVNNRMIQDLGDREVYKYNY,soluble
6,MTSIIKLKVFSGAKDEGPLCYLLQVDGDYILLDCGWDERFGLQYFEELKPFIPKISAVLISHPDPLHLGGLPYLVSKCGLTAPVYATVPVYKMGQMFIYDMVYSHLDVEEFEHYTLDDVDTAFEKVEQVKYNQTVVLKGDSGVHFTALPAGHMLGGSIWRICRVTGEDIVYCVDFNHKKERHLNGCSFDNFNRPHLLITGAHHISLPQMRRKDRDEQLVTKILRTVRQKGDCMIVIDTAGRVLELAHLLDQLWSNADAGLSTYNLVMMSHVASSVVQFAKSQLEWMNEKLFKYDSSSARYNPFTLKHVTLCHSHQELMRVRSPKVVLCSSQDMESGFSRELFLDWCSDPRNGVILTARPASFTLAAKLVNMAERANDGVLKHEDRLISLVVKKRVALEGEELLEYKRRKAERDAEETRLRMERARRQAQANESDDSDDDDIAAPIVPRHSEKDFRSFDGSENDAHTFDIMAKWDNQQKASFFKTTKKSFPMFPYIEEKVKWDDYGEVIKPEDYTVISKIDLRKGQNKDEPVVVKKREEEEEVYNPNDHVEEMPTKCVEFKNRVEVSCRIEFIEYEGISDGESTKKLLAGLLPRQIIVVHGSRDDTRDLVAYFADSGFDTTMLKAPEAGALVDASVESFIYQVALSDALLADIQFKEVSEGNSLAWIDARVMEKEAIDNMLAVGTSNLMIDDKNREEDVNDQEENGATEGEGNAEPMEIGENGSQESLAISESGKEVENGHTNDSRTKKGTKGKIRGNLILDPLPKRLIPIHQAVFVNDPKLSDFKNLLTDKGYKAEFLSGTLLINGGNCSIRRNDTGVFQMEGAFTKDYYKLRRLFYDQFAVL,not soluble
7,MLWGRREFVMREEDTVCVGSDGLQYCKVCGEAKEAFFPEGGFMGMKKHSRQCACDRKAYEEEQKYFKDKEHRELVSRNTSICFDESRMEEWTFENADMSDAVMHKAKSYVDNWEEMKRNHIGCLFWGPVGTGKSFIAGCIANELLKQEVTVKMTNFNTIIDDIFPLADKTEYINALASYQLLIIDDLGVERNSEYALGIIFSVIDRRIRSGRPLIITTNLPLNEIKSETMLDKRRIYDRILEMCTPMYVGGASKREAIASMKMEKAKTLLNTNKGEE,not soluble
8,MSLENPYQLVEDIEGIGFKRADNLAEQIGIAADSPRRIRAAILHQIFQHAVQTGDTYVPAETLLQQTIRILETSRPIEIQPDQVATVIIQLVEEGKIQQEETNLYENSLYFSEWGIGNSIQRLLSRKKEIHYPEKEVQKNIRRIEKIFGIQYGPSQEQAIAEAIRSPLFILTGGPGTGKTTVINGIVNLFAELNGLELDPSKYTQEIFPILLAAPTGRAAKRMNETTGLPASTIHRLLGLNGREKTPSVSTKELEGGLLIVDEMSMVDTWLANTLFKAIPTNMQVILVGDKDQLPSVGPGQVLHDLLEIEQIPKMELNQIYRQGDGSSIIPLAHEIKEGRLPKDFTKNQKDRSYFRSDAYQIEPLISKIVEKAKNKGFRAQDIQVLAPMYRGPAGIDALNKMMQEIFNPGKPGKKEVHWNDTVYRIGDKVLQLVNTPELNVFNGDMGEITGIILAKDSEDKVDELVIQFDANEVTYKRNEWNKITLSYCCSIHKSQGSEFKMVILPMVHQYQRMLQRNLLYTAVTRSKELLILLGEEQAYVTCVANESASRMTTLKSRIMDNDKMNEGHHHHHH,soluble
9,MAKKTSSLLSRRRTRRPGEPPLDLGSIPWLGYALDFGKDAASFLTRMKEKHGDIFTILVGGRYVTVLLDPHSYDAVVWEPRTRLDFHAYAIFLMERIFDVQLPHYSPSDEKARMKLTLLHRELQALTEAMYTNLHAVLLGDATEAGSGWHEMGLLDFSYSFLLRAGYLTLYGIEALPRTHESQAQDRVHSADVFHTFRQLDRLLPKLARGSLSVGDKDHMCSVKSRLWKLLSPARLARRAHRSKWLESYLLHLEEMGVSEEMQARALVLQLWATQGNMGPAAFWLLLFLLKNPEALAAVRGELESILWQAEQPVSQTTTLPQKVLDSTPVLDSVLSESLRLTAAPFITREVVVDLAMPMADGREFNLRRGDRLLLFPFLSPQRDPEIYTDPEVFKYNRFLNPDGSEKKDFYKDGKRLKNYNMPWGAGHNHCLGRSYAVNSIKQFVFLVLVHLDLELINADVEIPEFDLSRYGFGLMQPEHDVPVRYRIRPHHHH,soluble
10,MFGRHSIIPNNQIGTASASAGEDHVSASATSGHIPYDDMEEIPHPDSIYGAASDLIPDGSQLVAHRSDGSELLVSRPPEGANQLTISFRGQVYVFDAVGADKVDAVLSLLGGSTELAPGPQVMELAQQQNHMPVVEYQSRCSLPQRAQSLDRFRKKRNARCFEKKVRYGVRQEVALRMARNKGQFTSSKMTDGAYNSGTDQDSAQDDAHPEISCTHCGISSKCTPMMRRGPSGPRTLCNACGLFWANRGTLRDLSKKTEENQLALMKPDDGGSVADAANNLNTEAASVEEHTSMVSLANGDNSNLLGDH,soluble
11,MKKREVIASVKDEKLVKKRRNEMIKGAISLFKQKGFHQTTTREIAKASGFSIGTLYEYIRKKEDVLYLVCDRIYDEVRERTEQDLGAHHGTIEGLRRAIAHYFRVVDELDDEVLVMYQEVKALSKESLPYVLNKELDMAAIFEHILRACVENGALQLSESEIRLFAHNIVVLGQMWAFRRWVLRKMYTLDEYIELQTEFLLKGIMEKQRV,not soluble
12,MAQNNENALPDITKSITLEAPIQKVWETVSTSEGIAKWFMPNDFQLKEGQEFHLQSPFGPSPCKVLAVQAPTELSFEWDTEGWVVTFQLEDLGEKTGFTLIHSGWKEPNEVIGKANEKSSVVRGKMDGGWTGIVNERLRKAVEELEHHHHHH,soluble
13,MRFTKTLFTTALFGASVFSFQSTAWADTLEQQFQQGSEATTRGDYQTTFKFLLPLAEQGNALAQMMLGVMYAKGQGVKQDDVEAVKWYRKAAEQGYADAQAMLGFSYLLGQSGVQVNKSLAKEWFGKACDNGDQNGCEYYGKLNRGEL,not soluble
